From patent US20080254027A1 (published 2008)

Target: T1, CD5-His-GST (human, UniProt P06127 25-372)
T1 sequence: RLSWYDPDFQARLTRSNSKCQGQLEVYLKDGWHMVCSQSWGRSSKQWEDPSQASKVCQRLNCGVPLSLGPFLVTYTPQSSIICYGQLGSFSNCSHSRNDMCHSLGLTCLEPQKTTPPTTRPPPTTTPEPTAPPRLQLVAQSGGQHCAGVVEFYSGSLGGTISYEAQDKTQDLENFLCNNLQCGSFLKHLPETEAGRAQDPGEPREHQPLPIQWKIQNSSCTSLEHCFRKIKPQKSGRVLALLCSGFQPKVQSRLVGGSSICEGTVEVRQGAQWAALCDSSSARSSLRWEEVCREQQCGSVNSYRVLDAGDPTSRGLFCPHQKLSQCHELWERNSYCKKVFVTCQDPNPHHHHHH
Experiment: Biacore

B1: 5D7_H0L0_IgG1_WT (antibody, V domains shown)
VH: QVTLKESGPGILKPSQTLSLTCSFSGFSLSTSGMGVGWIRQPSGKGLEWLAHIWWDDDVYYNPSLKNQLTISKDASRDQVFLKITNLDTADTATYYCVRRRATGTGFDYWGQGTTLTVSS
VL: NIVMTQSHKFMSTSVGDRVSIACKASQDVGTAVAWYQQKPGQSPKLLIYWTSTRHTGVPDRFTGSGSGTDFTLTITNVQSEDLADYFCHQYNSYNTFGSGTRLELKR
  Kd: ~1.5 nM
